According to US20100261660A1 (published 2010):
Numbering of substitutions follows the chain as printed.

B1: Round 2 CTLA4 A-B11-5 (ligand)
chain: ITPKSATKRVKETVMLSCDYSTSTEELTSLRIYWQKDSKMVLAILPGKVQVWPEYKNRTITDMNDNPRIVILALRLSDSGTYTCVIQKPDLKGAYKLEHLTSVRLMIRADFPVPTINDLGNPSPNIRRLICSTSGGFPRPHLYWLENGEELNATNTTLSQDPETKLYMISSELDFNMTSNHSFLCLVKYGDLTVSQTFYWQESKPTPSANQHLTWTIIIPVSAFGISVIIAVILTCLTCRNAAIRRQRRENEVEMQSCSQSP
B2: Round 2 CTLA4 A-G8-1 (ligand)
chain: B1 chain with A6V, S21N, R75P
B3: Round 2 CTLA4 A-F6-9 (ligand)
chain: B1 chain with A6V
B4: Round 1 (R1) CTLA4BP-5 (ligand)
chain: VIHVTKEVKEVATLSCGHNVSVEELAQTRIHWQKEKKMVLTMMSGDMNIWPEYKNRTIFDITNNLSIVILALRPSDEGTYECVVLKYEKDAFKREHLAEVTLSVKADFPTPSISDFEIPPSNIRRIICSTSGGFPEPHLSWLENGEELNAINTTVSQDPGTELYTVSSKLDFNMTTNHSFMCLIKYGHLRVNQTFNWNTPKQEHFPDNLLPSWAITLISVNGIFVICCLTYCFAPRCRERRRNERLRRESVRPV
notes: also called R1-5
B5: Round 2 CTLA4BP 2x1-c4 (ligand)
chain: B4 chain with S15P, T101M, S114T, S140F, T165A, S179N
B6: Round 1 CTLA4BP-11 (ligand)
chain: B4 chain with V4M, H31Y, T101M, S114T, S140F, G160E, T165A, P200T, Y231H, R252H
notes: also called R1-11; R1 CTLA-4BP-11
B7: Round 2 CTLA4BP 2x1-f10 (ligand)
chain: B4 chain with T101M, S114T, H138R, S140A, L142M, N144D, T165A, F224S, R252C
B8: Round 1 CTLA4BP-27 (ligand)
chain: B4 chain with H18L, H31Y, T101M, G160E, T176A, M181V, R245T
notes: also called R1-27; R1 CTLA-4BP-27
B9: Round 1 CTLA4BP-13 (ligand)
chain: VIHVTKEVKEVATLSCGHNVSVEELAQTRIYWQKEKKMVLTMMSGDMNIWPEYKNRTIFDITNNLSIVILALRPSDEGTYECVVLKYEKDAFKREHLAEVTLSVKADFPTPSISDFEIPTSNIRRIICSTSGGFPEPHLFGLENGEEINAINTTASQDPETELYTVSSKLDFNMTPNRSFVCLIKYGHLRVNQTFNWNTPKQEHFPDNLLPSWAITLISANGIFVICCLTYCFAPRCRERKSNERLRRESVRPV
notes: also called R1-13; R1 CTLA-4BP-13
B10: Round 2 CTLA4BP 2x1-b12 (ligand)
chain: VIHMTKEVKEVATLSCGHNVSVEELAQTRIYWQKEKKMVLTMMSGDMNIWPEYKNRTIFDITNNLSIVILALRPSDEGTYECVALKYEKDAFKQEHLAEVTLSVKADFPTPSISDFEIPPSNIRRIICSTSGGFPEPRLAWMEDGEELNAINTTVSQDPETELYTVSSKLDFNMTANHSFMCLIKYGHLRVNQTFNWNTPKQEHFPDNLLPSWAITLISVNGIFVICCLTYCFAPRCRERRRNERLRRESVCPV

Target: T1, Soluble CTLA-4-Ig (extracellular domain of human CTLA-4 fused to the Fc portion of human IgG1) (human, UniProt P16410 36-161, FITC-conjugated in the FACS binding assays)
T1 construct: extracellular domain; bought from R&D Systems; also called sCTLA-4-Ig; CTLA-4-Ig Fc; not shown: Fc portion of human IgG1
Assay: competitive FACS on transfected cells, FITC-sCTLA-4-Ig with biotin-sCD28-Ig; grade 0-2 of CTLA-4/CD28 ratio vs WT hB7-1

T1 sequence (P16410 36-161): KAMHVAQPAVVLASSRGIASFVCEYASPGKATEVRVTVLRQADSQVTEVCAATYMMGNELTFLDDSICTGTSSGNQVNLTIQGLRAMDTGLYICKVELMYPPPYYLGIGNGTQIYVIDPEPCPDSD

Binder | Binding Score
B1 | 1
B2 | 1
B3 | 1
B4 | 2
B5 | 1
B6 | 1
B7 | 1
B8 | 1
B9 | 1
B10 | 1
